The values that follow come from patent publication EP1942187B1.

What all share (assay): cell-based or functional assay
One test concerns the target human zcytor19 (human).
For test [1], the target named is zcytoR19 and IL10Rb (CRF2-4) coexpressed on BHK cells (human).
The target of a further test is IL10Rb (CRF2-4) (human) (UniProt Q08334).
Sequence of IL10Rb (CRF2-4) (human) (Q08334 20-325 limits assumed, form in doubt): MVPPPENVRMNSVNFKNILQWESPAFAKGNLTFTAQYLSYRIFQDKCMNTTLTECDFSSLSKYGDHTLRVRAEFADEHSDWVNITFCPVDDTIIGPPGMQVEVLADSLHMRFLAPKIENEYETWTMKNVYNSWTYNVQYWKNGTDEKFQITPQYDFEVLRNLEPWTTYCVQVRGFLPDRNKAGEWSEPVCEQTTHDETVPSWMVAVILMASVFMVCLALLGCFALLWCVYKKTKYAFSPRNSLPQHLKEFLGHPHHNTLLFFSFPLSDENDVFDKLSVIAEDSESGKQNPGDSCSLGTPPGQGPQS

On to “huIL10 (from UniProt P22301 19-178) (ligand)”, for which the ISRE-luciferase fold induction; 293 cells transfected with ISRE-Luc./Zcytor19; HuIL 10 100ng/ml (fold induction) in the test with human zcytor19 (human) was found to be 0.5.
Substance “zcyto10 (from UniProt Q9NYY1 25-176) (ligand)” showed an ISRE-luciferase fold induction; 293 cells transfected with ISRE-Luc./Zcytor19; Zcyto10 125ng/ml (fold induction) with human zcytor19 (human) of 1.
Take zcyto20 (ligand): in test [1], the ISRE-luciferase fold induction; BHK cells transfected with zcytoR19 and IL10Rb (CRF2-4); zcyto20 0.001 ng/ml (fold induction) came out at 1.5; the ISRE-luciferase fold induction; BHK cells transfected with zcytoR19 and IL10Rb (CRF2-4); zcyto20 0.01 ng/ml (fold induction) worked out at 1.6; the ISRE-luciferase fold induction; BHK cells transfected with zcytoR19 and IL10Rb (CRF2-4); zcyto20 0.1 ng/ml (fold induction) is 2.1; the ISRE-luciferase fold induction; BHK cells transfected with zcytoR19 and IL10Rb (CRF2-4); zcyto20 1 ng/ml (fold induction) was 2.5. Further, in test [1], the ISRE-luciferase fold induction; BHK cells transfected with zcytoR19 and IL10Rb (CRF2-4); zcyto20 10 ng/ml (fold induction) amounted to 2.4; the ISRE-luciferase fold induction; BHK cells transfected with zcytoR19 and IL10Rb (CRF2-4); zcyto20 100 ng/ml (fold induction) stood at 2.6; the ISRE-luciferase fold induction; BHK cells transfected with zcytoR19 and IL10Rb (CRF2-4); zcyto20 1000 ng/ml (fold induction) worked out at 2.1. Further, in the test with IL10Rb (CRF2-4) (human), the ISRE-luciferase fold induction; wild-type 293 cells; Zcyto20 0.01 ng/ml; + IL10Rb neutralizing antibody (8 ug/ml) (fold induction) was 0.8, the ISRE-luciferase fold induction; wild-type 293 cells; Zcyto20 0.01 ng/ml; no antibody (fold induction) was found to be 1, the ISRE-luciferase fold induction; wild-type 293 cells; Zcyto20 0.1 ng/ml; + IL10Rb neutralizing antibody (8 ug/ml) (fold induction) was found to be 1 and the ISRE-luciferase fold induction; wild-type 293 cells; Zcyto20 0.1 ng/ml; no antibody (fold induction) is 1. For the same substance, in the test with IL10Rb (CRF2-4) (human), the ISRE-luciferase fold induction; wild-type 293 cells; Zcyto20 1 ng/ml; + IL10Rb neutralizing antibody (8 ug/ml) (fold induction) is 0.9, the ISRE-luciferase fold induction; wild-type 293 cells; Zcyto20 1 ng/ml; no antibody (fold induction) amounted to 1, the ISRE-luciferase fold induction; wild-type 293 cells; Zcyto20 10 ng/ml; + IL10Rb neutralizing antibody (8 ug/ml) (fold induction) worked out at 0.9 and the ISRE-luciferase fold induction; wild-type 293 cells; Zcyto20 10 ng/ml; no antibody (fold induction) was found to be 4. In the test with IL10Rb (CRF2-4) (human), the ISRE-luciferase fold induction; wild-type 293 cells; Zcyto20 100 ng/ml; + IL10Rb neutralizing antibody (8 ug/ml) (fold induction) stood at 0.8, the ISRE-luciferase fold induction; wild-type 293 cells; Zcyto20 100 ng/ml; no antibody (fold induction) was 8.4, the ISRE-luciferase fold induction; zcytoR19-overexpressing 293 cells; Zcyto20 0.01 ng/ml; + IL10Rb neutralizing antibody (8 ug/ml) (fold induction) was 1.2 and the ISRE-luciferase fold induction; zcytoR19-overexpressing 293 cells; Zcyto20 0.01 ng/ml; no antibody (fold induction) stood at 1.1. For the same substance, in the test with IL10Rb (CRF2-4) (human), the ISRE-luciferase fold induction; zcytoR19-overexpressing 293 cells; Zcyto20 0.1 ng/ml; + IL10Rb neutralizing antibody (8 ug/ml) (fold induction) came to 1.1, the ISRE-luciferase fold induction; zcytoR19-overexpressing 293 cells; Zcyto20 0.1 ng/ml; no antibody (fold induction) amounted to 6, the ISRE-luciferase fold induction; zcytoR19-overexpressing 293 cells; Zcyto20 1 ng/ml; + IL10Rb neutralizing antibody (8 ug/ml) (fold induction) was determined as 1.3 and the ISRE-luciferase fold induction; zcytoR19-overexpressing 293 cells; Zcyto20 1 ng/ml; no antibody (fold induction) is 68. Moreover, in the test with IL10Rb (CRF2-4) (human), the ISRE-luciferase fold induction; zcytoR19-overexpressing 293 cells; Zcyto20 10 ng/ml; + IL10Rb neutralizing antibody (8 ug/ml) (fold induction) came to 23, the ISRE-luciferase fold induction; zcytoR19-overexpressing 293 cells; Zcyto20 10 ng/ml; no antibody (fold induction) is 97, the ISRE-luciferase fold induction; zcytoR19-overexpressing 293 cells; Zcyto20 100 ng/ml; + IL10Rb neutralizing antibody (8 ug/ml) (fold induction) stood at 60 and the ISRE-luciferase fold induction; zcytoR19-overexpressing 293 cells; Zcyto20 100 ng/ml; no antibody (fold induction) is 91. In the test with human zcytor19 (human), the ISRE-luciferase fold induction; 293 cells transfected with ISRE-Luc./Zcytor19; Zcyto20 125ng/ml (fold induction) was found to be 125, the ISRE-luciferase fold induction; BHK cells transfected with zcytoR19 alone; zcyto20 0.001 ng/ml (fold induction) stood at 1.4, the ISRE-luciferase fold induction; BHK cells transfected with zcytoR19 alone; zcyto20 0.01 ng/ml (fold induction) was 1.2 and the ISRE-luciferase fold induction; BHK cells transfected with zcytoR19 alone; zcyto20 0.1 ng/ml (fold induction) amounted to 1.25. In the test with human zcytor19 (human), this substance showed an ISRE-luciferase fold induction; BHK cells transfected with zcytoR19 alone; zcyto20 1 ng/ml (fold induction) of 1.3, an ISRE-luciferase fold induction; BHK cells transfected with zcytoR19 alone; zcyto20 10 ng/ml (fold induction) of 2.1, an ISRE-luciferase fold induction; BHK cells transfected with zcytoR19 alone; zcyto20 100 ng/ml (fold induction) of 2.2 and an ISRE-luciferase fold induction; BHK cells transfected with zcytoR19 alone; zcyto20 1000 ng/ml (fold induction) of 2.25.
